Target: HER3 (human (endogenous in LIM1215)) (UniProt P21860)
Test: Collaborative Enzyme Enhanced Reactive-immunoassay (CEER); proximity-mediated immunoassay in a multiplexed array format on LIM1215 cell lysates, done by Prometheus Laboratories; cells control-treated or treated 24h with cetuximab (50 ug/mL), lapatinib (1 uM), gefitinib, cetuximab + trastuzumab (20 ug/mL) or cetuximab + pertuzumab (10 ug/mL); read-out in computed units (CU)

Chain of UniProt P21860 (P21860 20-1342): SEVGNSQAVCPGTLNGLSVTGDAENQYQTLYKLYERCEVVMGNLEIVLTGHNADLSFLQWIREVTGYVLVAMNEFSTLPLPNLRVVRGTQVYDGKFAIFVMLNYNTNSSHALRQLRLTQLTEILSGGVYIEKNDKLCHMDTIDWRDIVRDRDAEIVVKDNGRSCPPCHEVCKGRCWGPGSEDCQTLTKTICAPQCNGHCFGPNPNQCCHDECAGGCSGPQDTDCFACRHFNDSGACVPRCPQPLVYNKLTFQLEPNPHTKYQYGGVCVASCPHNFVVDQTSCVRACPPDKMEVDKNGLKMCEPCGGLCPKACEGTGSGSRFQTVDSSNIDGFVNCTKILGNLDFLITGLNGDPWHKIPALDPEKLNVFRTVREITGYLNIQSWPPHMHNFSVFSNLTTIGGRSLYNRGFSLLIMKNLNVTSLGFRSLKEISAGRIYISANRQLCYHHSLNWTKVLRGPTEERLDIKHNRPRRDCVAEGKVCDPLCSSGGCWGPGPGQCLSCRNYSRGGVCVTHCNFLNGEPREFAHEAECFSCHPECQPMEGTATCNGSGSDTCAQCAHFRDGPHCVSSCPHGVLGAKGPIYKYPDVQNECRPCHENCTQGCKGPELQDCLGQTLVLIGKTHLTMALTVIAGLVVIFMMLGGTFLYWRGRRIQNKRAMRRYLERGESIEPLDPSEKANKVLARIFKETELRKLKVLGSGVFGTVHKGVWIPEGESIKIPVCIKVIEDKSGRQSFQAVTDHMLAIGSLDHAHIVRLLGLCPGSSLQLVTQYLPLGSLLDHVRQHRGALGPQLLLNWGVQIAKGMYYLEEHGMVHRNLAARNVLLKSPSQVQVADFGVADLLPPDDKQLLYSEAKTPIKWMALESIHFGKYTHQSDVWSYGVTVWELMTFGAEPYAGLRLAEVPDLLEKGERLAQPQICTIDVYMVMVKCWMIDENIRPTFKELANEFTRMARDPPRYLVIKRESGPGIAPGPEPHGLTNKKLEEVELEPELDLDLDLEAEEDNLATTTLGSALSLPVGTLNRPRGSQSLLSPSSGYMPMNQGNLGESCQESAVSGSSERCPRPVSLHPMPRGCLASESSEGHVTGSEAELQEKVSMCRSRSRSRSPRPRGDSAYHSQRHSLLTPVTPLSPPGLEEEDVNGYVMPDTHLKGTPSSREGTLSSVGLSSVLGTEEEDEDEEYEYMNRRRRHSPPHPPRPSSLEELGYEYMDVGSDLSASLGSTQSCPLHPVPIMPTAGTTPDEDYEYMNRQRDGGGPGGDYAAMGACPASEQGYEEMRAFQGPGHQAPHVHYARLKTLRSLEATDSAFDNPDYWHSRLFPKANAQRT
Chain of PI3K p85 (P27986 whole entry): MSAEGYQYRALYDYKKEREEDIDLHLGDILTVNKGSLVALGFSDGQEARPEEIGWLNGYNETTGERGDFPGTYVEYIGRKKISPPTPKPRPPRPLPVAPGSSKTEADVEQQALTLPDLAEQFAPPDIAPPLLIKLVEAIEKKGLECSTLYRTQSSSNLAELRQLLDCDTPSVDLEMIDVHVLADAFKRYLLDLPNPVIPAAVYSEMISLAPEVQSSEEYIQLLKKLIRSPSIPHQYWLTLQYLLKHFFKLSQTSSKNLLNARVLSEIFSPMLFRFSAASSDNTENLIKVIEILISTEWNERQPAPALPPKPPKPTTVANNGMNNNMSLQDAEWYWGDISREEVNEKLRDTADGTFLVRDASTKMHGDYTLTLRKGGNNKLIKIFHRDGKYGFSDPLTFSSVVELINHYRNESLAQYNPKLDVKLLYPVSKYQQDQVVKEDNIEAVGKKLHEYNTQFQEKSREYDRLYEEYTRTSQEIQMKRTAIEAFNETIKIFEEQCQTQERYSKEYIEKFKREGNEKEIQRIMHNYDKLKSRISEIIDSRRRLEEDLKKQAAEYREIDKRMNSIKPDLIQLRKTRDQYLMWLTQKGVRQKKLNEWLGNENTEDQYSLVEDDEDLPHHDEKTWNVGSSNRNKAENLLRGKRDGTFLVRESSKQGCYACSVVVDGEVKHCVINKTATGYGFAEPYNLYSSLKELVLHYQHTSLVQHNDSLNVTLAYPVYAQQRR

fold increase in HER3:PI3K p85 binding, 24h cetuximab against control treatment: 5 fold
Substance: PI3K p85 (from UniProt P27986 1-724) (natural protein)

— PMC5354831
